Reference: patent US20050049402A1 (Amgen, published 2005)

How the values were obtained:
[1] = target: T1, monkey (cynomolgous macaque) GST-TNFα (cynomolgous macaque, UniProt P79337 77-233); assay: ELISA, plate coated with 2 µg/ml monkey (cynomolgus macaque) GST-TNFα, HRP goat anti-human IgG detection
T1 construct: also called E. coli expressed soluble cynomolgous macaque monkey TNF; monkey TNFα; not shown: GST fusion partner
Protocol: (§1) Anti-TNFα antibodies were also tested for their ability to bind to soluble recombinant TNFα. Human and monkey (cynomolgous macaque) TNFα were expressed in E. coli as fusion proteins with GST. Binding was assessed by ELISA. […] Bound antibody was detected using an HRP-conjugated goat anti-human IgG antibody.

[2] = target: T2, human TNFα (Tumor Necrosis Factor-alpha), soluble (human, UniProt P01375 77-233); assay: cell-based or functional assay
[3] = target: T2, human TNFα (Tumor Necrosis …); assay: cell-based or functional assay; remark: listed apart in the source
[4] = target: transmembrane mutant TNFα expressed on the surface of CHO cells (UniProt P01375 1-233); assay: cell-based or functional assay
Sequence of transmembrane mutant TNFα expressed on the surface of CHO cells (P01375 whole entry, change not shown, form in doubt): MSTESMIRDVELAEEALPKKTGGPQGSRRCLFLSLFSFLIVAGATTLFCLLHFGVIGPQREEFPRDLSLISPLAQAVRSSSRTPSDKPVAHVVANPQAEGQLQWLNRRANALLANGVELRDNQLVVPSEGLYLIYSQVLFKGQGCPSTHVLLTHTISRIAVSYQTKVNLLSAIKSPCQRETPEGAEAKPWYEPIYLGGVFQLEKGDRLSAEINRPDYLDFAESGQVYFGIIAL

[5] = target: T3, cynomolgus macaque TNFα (KinExA) (cynomolgus macaque, UniProt P79337 77-233, limits assumed); assay: KinExA
T3 construct: also called monkey TNFα
Protocol: (§2) The kinetic measurements of the anti-TNFα antibodies were evaluated using KinExA® and BIACORE® technologies. The KinExA® method involves solution-based determination of formal affinity measurements at equilibrium. To measure the binding kinetics of each human anti-TNFα antibody, two experiments in replicates of three were performed. In both experiments a known concentration of antigen was titrated and a different antibody concentration was added to each antigen titration and allowed to reach binding equilibrium. […] The results were analyzed by dual curve analysis. […] In addition, to negate the possibility of avidity effects, Fab fragments were generated by papain cleavage and the kinetic analysis was repeated (see Table 24).
(§3) The KinExA method was also used to measure the Kd describing this binding affinity.

[6] = target: T3, cynomolgus macaque TNFα (KinExA); assay: KinExA, TNFα as a monomer
Protocol: as §2, §3

[7] = target: T2, human TNFα (Tumor Necrosis …); assay: BIACORE, average N = 5
[8] = target: T2, human TNFα (Tumor Necrosis …); assay: KinExA, TNFα counted as three monomers
Protocol: as §2

[9] = target: T2, human TNFα (Tumor Necrosis …); assay: BIACORE, average
human TNFα R131Q mutant = human TNFα R131Q mutant (human, UniProt P01375 77-233); assay: ELISA on chimeric/mutant TNFα
Source text: (§4) In order to define the binding site for different antibodies, a number of residues of hTNFα were mutated using site directed mutagenesis. A panel of antibodies was screened for binding by an ELISA assay. […] Histidine at position 73 was deleted, an example is illustrated in Table 19.

human TNFα R31Q mutant = human TNFα R31Q mutant (human, UniProt P01375 77-233); assay: ELISA on chimeric/mutant TNFα
Sequence of human TNFα R31Q mutant (P01375 77-233 R107Q): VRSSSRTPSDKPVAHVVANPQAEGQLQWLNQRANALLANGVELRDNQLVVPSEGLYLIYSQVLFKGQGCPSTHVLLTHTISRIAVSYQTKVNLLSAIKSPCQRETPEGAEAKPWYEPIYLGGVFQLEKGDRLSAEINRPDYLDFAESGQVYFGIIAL
Source text: as §4

[10] = target: T4, H/M PvuII chimeric TNFα (human 1-125, murine 126-157) (human; mouse); assay: ELISA on chimeric/mutant TNFα
T4 construct: also called Hu/M PVu11
T4 chain: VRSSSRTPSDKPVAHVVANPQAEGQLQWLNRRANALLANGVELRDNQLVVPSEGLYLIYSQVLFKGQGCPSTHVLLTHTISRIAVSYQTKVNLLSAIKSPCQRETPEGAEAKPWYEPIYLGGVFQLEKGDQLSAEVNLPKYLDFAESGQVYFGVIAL
Source text: as §4

[11] = target: T5, H/M HincII chimeric TNFα (human 1-91, murine 92-157) (human; mouse); assay: ELISA on chimeric/mutant TNFα
T5 construct: Murine range printed 92-157 (human-aligned); also called Hu/M Hin C l1
T5 chain: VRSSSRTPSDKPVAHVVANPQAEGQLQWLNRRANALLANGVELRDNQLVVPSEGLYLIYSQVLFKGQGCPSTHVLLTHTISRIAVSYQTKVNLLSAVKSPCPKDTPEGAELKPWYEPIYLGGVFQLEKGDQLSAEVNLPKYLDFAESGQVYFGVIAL
Source text: as §4

[12] = target: T6, H/M BglI chimeric TNFα (human 1-36, murine 37-157) (human; mouse, UniProt P06804 81-235); assay: ELISA on chimeric/mutant TNFα
T6 construct: Murine range is printed as 37-157 in human-aligned numbering; also called H/MBgl1; Hu/MBgl1
T6 chain: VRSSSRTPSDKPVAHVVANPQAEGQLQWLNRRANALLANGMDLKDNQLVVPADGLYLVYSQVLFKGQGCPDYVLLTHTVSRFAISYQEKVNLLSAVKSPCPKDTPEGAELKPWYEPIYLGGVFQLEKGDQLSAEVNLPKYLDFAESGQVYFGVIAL
Source text: as §4

mouse TNFα = target: T7, mouse TNFα (mouse, UniProt P06804 80-235); assay: binding to chimeric TNF proteins
T7 construct: also called M TNFα; murine TNF
T7 sequence: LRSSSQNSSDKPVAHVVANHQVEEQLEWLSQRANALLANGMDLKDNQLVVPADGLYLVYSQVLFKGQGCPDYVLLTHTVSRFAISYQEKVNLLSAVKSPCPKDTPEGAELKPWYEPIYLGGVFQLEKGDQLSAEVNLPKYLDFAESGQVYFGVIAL

[13] = target: T2, human TNFα (Tumor Necrosis …); assay: cell-based or functional assay; remark: listed apart in the source
human GST-TNFα = target: T8, human GST-TNFα (human, UniProt P01375 77-233); assay: ELISA, plate coated with 0.5 µg/ml human GST-TNFα, HRP goat anti-human IgG detection
T8 construct: also called E. coli expressed soluble human TNF; not shown: GST fusion partner
Protocol: as §1

[14] = target: T2, human TNFα (Tumor Necrosis …); assay: KinExA, TNFα counted as one trimer
Protocol: as §2

- EC50 (read off the curve) [1]: ~4 ng/mL
- ADCC (%) [4]: 16%
- CDC (%) [4]: 9%
- fold lower affinity than for human TNFα [5]: ~200 fold
- Kd [6]: 626 pM
- binding result (human TNFα R131Q mutant): binds
- binding result (human TNFα R31Q mutant): no binding
- binding result [10]: binds
- binding result [11]: binds
- binding result [12]: binds
- binding result (mouse TNFα): no binding
- EC50 (read off the curve) (human GST-TNFα): ~4 ng/mL
B1: 299v2 (antibody, human IgG1, V domains shown)
VH: QVQLVESGGGVVQPGRSLRLSCAASGFTFSSYDMHWVRQAPGKGLEWVAVIWSDGSIKYYADSVKGRFTISRDNSKNTLYLQMNSLRAEDTAVYYCAREVESAMGGFYYNGMDVWGQGTTVTVSS
VL: DIQMTQSPSSLSASVGDRVTITCRASQGIRIDLGWYQQKPGKAPKRLIYAASTLQSGVPSRFSGSGSGTEFIFTISSLQPEDFASYYCLQHKSYPLTFGGGTKVEIK
notes: XENOMAX derived, recombinant human IgG1 kappa; also called 299v2Ab; SC299V2
- In vivo Potency (IC50), ALT, hTNFα/D-GalN hepatic injury in mice [2]: 50000 pM
- In vivo Potency (IC50), human TNFα-induced IL-6 in mice [2]: 43000 pM
- Whole Blood IC50, TNFα-induced IL-8 production [3]: 131 pM
- koff [7]: 1.03e-05 s⁻¹
- kon [7]: 2.16e+06 M⁻¹ s⁻¹
- Kd [8]: 3.2 pM
- Kd [9]: 5.7 pM
- IC50 1 hr Pre-incubation, TNF induced apoptosis in MCF-7 cells [13]: 18.6 pM
- IC50 18 hr Pre-incubation, TNF induced apoptosis in MCF-7 cells [13]: 1.6 pM
- Kd [14]: 1.07 pM
